Data reported in IntAct's records for PubMed 27427983.

B1: Non-structural maintenance of chromosomes element 3 homolog (Homo sapiens), Q96MG7 (parent)
chain: MLQKPRNRGRSGGQAERDRDWSHSGNPGASRAGEDARVLRDGFAEEAPSTSRGPGGSQGSQGPSPQGARRAQAAPAVGPRSQKQLELKVSELVQFLLIKDQKKIPIKRADILKHVIGDYKDIFPDLFKRAAERLQYVFGYKLVELEPKSNTYILINTLEPVEEDAEMRGDQGTPTTGLLMIVLGLIFMKGNTIKETEAWDFLRRLGVYPTKKHLIFGDPKKLITEDFVRQRYLEYRRIPHTDPVDYEFQWGPRTNLETSKMKVLKFVAKVHNQDPKDWPAQYCEALADEENRARPQPSGPAPSS
partner: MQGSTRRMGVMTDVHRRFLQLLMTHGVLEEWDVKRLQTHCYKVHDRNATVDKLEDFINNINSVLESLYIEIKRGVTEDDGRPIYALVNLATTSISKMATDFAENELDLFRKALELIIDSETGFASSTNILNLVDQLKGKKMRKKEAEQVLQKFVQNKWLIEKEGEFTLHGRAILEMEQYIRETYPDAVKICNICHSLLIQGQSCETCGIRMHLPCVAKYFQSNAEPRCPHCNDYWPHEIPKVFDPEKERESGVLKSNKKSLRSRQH
B2: Non-structural maintenance of chromosomes element 3 homolog (Homo sapiens), Q96MG7 (parent)
chain: B1 chain
partner: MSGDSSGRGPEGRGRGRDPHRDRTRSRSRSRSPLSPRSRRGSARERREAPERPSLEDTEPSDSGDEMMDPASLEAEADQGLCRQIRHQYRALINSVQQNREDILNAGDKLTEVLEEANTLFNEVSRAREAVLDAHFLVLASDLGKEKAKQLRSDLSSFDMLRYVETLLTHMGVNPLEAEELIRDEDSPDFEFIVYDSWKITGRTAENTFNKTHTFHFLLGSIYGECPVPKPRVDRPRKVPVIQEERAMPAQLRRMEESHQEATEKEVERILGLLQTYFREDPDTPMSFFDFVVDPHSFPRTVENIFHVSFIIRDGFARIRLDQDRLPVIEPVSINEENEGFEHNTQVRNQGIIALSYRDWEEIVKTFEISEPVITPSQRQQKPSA
B3: Non-structural maintenance of chromosomes element 3 homolog (Homo sapiens), Q96MG7 (parent)
chain: B1 chain
partner: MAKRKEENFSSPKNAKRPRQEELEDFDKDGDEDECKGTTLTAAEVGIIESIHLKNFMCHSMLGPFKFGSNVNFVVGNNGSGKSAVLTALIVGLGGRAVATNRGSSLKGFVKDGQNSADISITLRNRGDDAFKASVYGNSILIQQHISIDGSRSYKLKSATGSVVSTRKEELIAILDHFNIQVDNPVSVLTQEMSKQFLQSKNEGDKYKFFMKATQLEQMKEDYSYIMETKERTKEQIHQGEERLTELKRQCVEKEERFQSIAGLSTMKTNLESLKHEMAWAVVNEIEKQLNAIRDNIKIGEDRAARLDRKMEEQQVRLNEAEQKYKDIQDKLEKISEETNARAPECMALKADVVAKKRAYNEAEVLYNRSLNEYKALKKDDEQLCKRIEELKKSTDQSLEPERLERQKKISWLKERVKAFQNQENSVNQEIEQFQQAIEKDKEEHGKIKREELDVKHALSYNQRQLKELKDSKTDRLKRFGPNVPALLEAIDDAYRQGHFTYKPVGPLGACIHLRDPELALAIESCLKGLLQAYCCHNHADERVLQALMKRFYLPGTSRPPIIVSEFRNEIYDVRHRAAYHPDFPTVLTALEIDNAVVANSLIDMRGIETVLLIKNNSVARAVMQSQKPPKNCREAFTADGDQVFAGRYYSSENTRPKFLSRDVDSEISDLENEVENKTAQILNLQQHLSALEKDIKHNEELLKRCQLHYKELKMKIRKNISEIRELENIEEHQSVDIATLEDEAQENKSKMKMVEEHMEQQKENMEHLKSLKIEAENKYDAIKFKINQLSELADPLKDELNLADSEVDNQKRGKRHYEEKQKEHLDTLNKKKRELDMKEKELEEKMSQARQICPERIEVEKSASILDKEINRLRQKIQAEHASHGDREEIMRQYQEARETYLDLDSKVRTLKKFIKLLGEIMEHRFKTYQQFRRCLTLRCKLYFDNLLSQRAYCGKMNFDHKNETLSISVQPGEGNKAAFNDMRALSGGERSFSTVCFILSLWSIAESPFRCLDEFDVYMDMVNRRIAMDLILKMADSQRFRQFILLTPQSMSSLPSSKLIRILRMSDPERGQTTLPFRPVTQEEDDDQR

Variants of: B1
Conditions: with nse1_human NSMCE1, Q8WV22

effect of a mutation on the interaction	Variant
with no effect	L264F
decreasing interaction strength	P209L
with no effect	F266A
disrupting interaction strength	L97A

Variants of: B1
Conditions: with nse1_human NSMCE1, Q8WV22
Remark: another data set of the same source

effect of a mutation on the interaction	Variant
decreasing interaction strength	L264F

Variants of: B2
Conditions: with nse4a_human NSMCE4A

effect of a mutation on the interaction	Variant
with no effect	L97A
disrupting interaction strength	L264F
disrupting interaction strength	P209L
disrupting interaction strength	F266A

Variants of: B3
Conditions: with smc6_human SMC6, Q96SB8

effect of a mutation on the interaction	Variant
disrupting interaction strength	L264F
